Earlier results in PMC11634773 (Nature, 2024).

Conditions: humans, basal insulin

## insulin glargine
  c.v. for traditional needle-based subcutaneous pen injection: 33%
